Experimental findings from US11278600B2, “Human alpha-galactosidase variants” (Codexis, Inc., priority 2014, dated 2022) are described below.

What all share (assay type): biochemical
A short description of series [1]: HTP-analysis of supernatants pretreated with bovine serum (MUGal hydrolysis). The following applies: activity of the variant/activity of Rd3BB (SEQ ID NO: 13), yeast culture supernatant. In outline: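 Yeast INVSc1 culture supernatants containing secreted GLA variants were mixed with bovine serum (20:80) and held 1 h at 37° C. Serum-treated samples then reacted with MUGal (4 mM stock) in citrate/McIlvaine buffer (pH 4.3/4.8) for 180 min at 37° C., were quenched with sodium carbonate, and read by fluorescence (Ex 355, Em 448 nm).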

The nature of series [2]: HTP-analysis of supernatants pretreated with base (MUGal hydrolysis). To be noted: challenge at pH 8.2; activity of the variant/activity of Rd3BB (SEQ ID NO: 13); yeast culture supernatant. In outline:
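Fluorescence of released 4-MU (Ex 355 nm, Em 448 nm) after carbonate quench reports MUGal hydrolysis by GLA variants secreted from INVSc1 yeast. Before the acidic (pH 4.3-4.8) 30-180 min reaction at 37° C, supernatants had been pre-incubated at pH 7.0-9.7 for 1-18 h at 37° C.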

A short description of series [3]: HTP-analysis of supernatants pretreated with acid (MUGal hydrolysis). To be noted: challenge at pH 4.0; activity of the variant/activity of Rd3BB (SEQ ID NO: 13); yeast culture supernatant. Summed up: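 MUGal hydrolysis was tracked by fluorescence (Ex 355 nm, Em 448 nm) after a 30-180 min reaction at 37° C. in pH 4.8 McIlvaine/citrate buffer, stopped with 1 M sodium carbonate. Beforehand, yeast (INVSc1) culture supernatants carrying GLA variants were held 1-3 h at 37° C. in acidic McIlvaine buffer, pH 3.3-4.3.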

Series [4] in a line: HTP-analysis of yeast culture supernatants, no challenge (MUGal hydrolysis). To be noted: activity of the variant/activity of Rd3BB (SEQ ID NO: 13), yeast culture supernatant. Summed up:
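GLA variants were expressed in INVSc1 yeast grown in SD-Ura broth with glucose at 30° C., and culture supernatants were collected after 66-84 h. Supernatant was mixed with McIlvaine buffer pH 4.8 and MUGal (2 mM stock) in 50 mM citrate, 200 mM KCl, pH 4.6, incubated at 37° C. for 30-180 minutes, then quenched with sodium carbonate.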

B1: 300 (protein)
chain: LDNGLARTPTMGWLHWERFMCNLDCQEEPDSCISEKLFMEMAELMVSEGWKDAGYEYLCIDDCWMAPQRDSEGRLQADPQRFPHGIRQLANYVHSKGLKLGIYADVGNKTCAGFPGSFGYYDIDAQTFADWGVDLLKFDGCYCDSLENLADGYKHMSLALNRTGRSIVYSCEWPLYMWPFQKPNYTEIRQYCNHWRNFADIDDSWASVKSILDWTSFNQETIVDVAGPGGWNDPDMLVIGNFGLSWDQQVTQMALWAIMAAPLFMSNDLRHISPQAKALLQDKDVIAINQDPLGKQGYQLRQGDNFEVWERPLSGLAWAVAVINRQEIGGPRSYTIAVASLGGGVACNPACFITQLLPVKRKLGFYNWTSRLKSHINPTGTVLLQLENTMQMSLKDLL
modifications: Synthetic Polypeptide sequence of Variant No. 300 of mature Human GLA
Take B1: the “Relative Activity of GLA Variants After Challenge with Serum” value (shortened to “Relative Activity … with Serum”) in series [1] is “++ (++ = >1.5 to 2.5 relative activity over Rd3BB (SEQ ID NO: 13))”. Further, the “Relative Activity of GLA Variants After Challenge at pH 8.2” value (“Relative Activity … at pH 8.2” below) in series [2] is on record as “++ (++ = >1.5 to 2.5 relative activity over Rd3BB (SEQ ID NO: 13))”. In addition, the “Relative Activity of GLA Variants After Challenge at pH 4.0” value (“Relative Activity … at pH 4.0” for short) in series [3] was “++ (++ = >1.5 to 2.5 relative activity over Rd3BB (SEQ ID NO: 13))”. In addition, the “Relative Activity of GLA Variants After No Challenge (NC)” value in series [4] is recorded as “+ (+ = 0.5 to 1.5 relative activity over Rd3BB (SEQ ID NO: 13))”.

B2: 302 (protein)
chain: LDNGLARTPTMGWLHWERFMCNLDCQEEPDSCISEKLFMEMAELMVSEGWKDAGYEYLCIDDCWMAPQRDSEGRLQADPQRFPHGIRQLANYVHSKGLKLGIYADVGNKTCAGFPGSFGYYDIDAQTFADWGVDLLKFDGCYCDSLENLADGYKHMSLALNRTGRSIVYSCEWPLYMWPFQKPNYTEIRQYCNHWRNFADIDDSWASIKSILDWTSFNQERIVDVAGPGGWNDPDMLVIGNFGLSWNQQVTQMALWAIMAAPLFMSNDLRHISPQAKALLQDKDVIAINQDPLGKQGYQLRQGDNFEVWERPLSGLAWAVAVINRQEIGGPRSYTIAVASLGGGVACNPACFITQLLPVKRKLGFYNWTSRLKSHINPTGTVLLQLENTMQMSLKDLL
modifications: Synthetic Polypeptide sequence of Variant No. 302 of mature Human GLA
Consider B2, for which the “Relative Activity … with Serum” value in series [1] is “+ (+ = 0.5 to 1.5 relative activity over Rd3BB (SEQ ID NO: 13))”. Also, the “Relative Activity … at pH 8.2” value in series [2] is listed as “+ (+ = 0.5 to 1.5 relative activity over Rd3BB (SEQ ID NO: 13))”. Further, the “Relative Activity … at pH 4.0” value in series [3] is listed as “+ (+ = 0.5 to 1.5 relative activity over Rd3BB (SEQ ID NO: 13))”. The “Relative Activity of GLA Variants After No Challenge (NC)” value in series [4] is recorded as “+ (+ = 0.5 to 1.5 relative activity over Rd3BB (SEQ ID NO: 13))”.

B3: 301 (protein)
chain: LDNGLARTPTMGWLHWERFMCNLDCQEEPDSCISEKLFMEMAELMVSEGWKDAGYEYLCIDDCWMAPQRDSEGRLQADPQRFPHGIRQLANYVHSKGLKLGIYADVGNKTCAGFPGSFGYYDIDAQTFADWGVDLLKFDGCYCDSLENLADGYKHMSLALNRTGRSIVYSCEWPLYMWPFQKPNYTEIRQYCNHWRNFADIDDSWASIKSILDWTSFNQERIVDVAGPGGWNDPDMLVIGNFGLSWNQQVTQMALWAIMAAPLFMSNDLRHISPQAKALLQDKDVIAINQDPLGKQGYQLRQGDNFEVWERPLSGLAWAVAIINRQEIGGPRSYTIAVASLGKGVACNPACFITQLLPVKRKLGFYNWTSRLKSHINPTGTVLLQLENTMQMSLKDLL
modifications: Synthetic Polypeptide sequence of Variant No. 301 of mature Human GLA
B3: the “Relative Activity … with Serum” value in series [1] was “− (− = <0.5 relative activity to Rd3BB (SEQ ID NO: 13))”. In addition, in series [2], the “Relative Activity … at pH 8.2” value is listed as “+ (+ = 0.5 to 1.5 relative activity over Rd3BB (SEQ ID NO: 13))”. Moreover, the “Relative Activity … at pH 4.0” value in series [3] was “+ (+ = 0.5 to 1.5 relative activity over Rd3BB (SEQ ID NO: 13))”. The “Relative Activity of GLA Variants After No Challenge (NC)” value in series [4] is reported as “+ (+ = 0.5 to 1.5 relative activity over Rd3BB (SEQ ID NO: 13))”.
